Assays:
Full-length Aβ42 = assay: cell-based or functional assay
Full-length Aβ40 = assay: cell-based or functional assay

B1: p3_(42) Peptide Aβ_(17-42) (peptide)
peptide: LVFFAEDVGSNKGAIIGLMVGGVVIA
notes: numbers count on: the Aβ peptide; Used as SEC-purified monomer, as lag-phase oligomer preparation and as fibril seeds; source: synthetic peptide, bought: EZBiolab Inc; solubilized at pH 10, monomer isolated by SEC
For B1, the “t50 of ThT fibril growth of Aβ42 monomer with p3_(42) fibril seeds (10% w/w), as a percentage relative to self-seeding” value (Full-length Aβ42) was > 70 % relative to self-seeding t50.

B2: p3_(40) Peptide Aβ_(17-40) (peptide)
peptide: LVFFAEDVGSNKGAIIGLMVGGVV
notes: as for B1
For B2, the “t50 of ThT fibril growth of Aβ40 monomer with p3_(40) fibril seeds (10% w/w), as a percentage relative to self-seeding” value (Full-length Aβ40) was 70 % relative to self-seeding t50.
